Data as given in publication PMC4337892 (Molecular cell, 2014).

T1: H. sapiens laforin residues 1-328, wild-type (human), O95278
T1 chain: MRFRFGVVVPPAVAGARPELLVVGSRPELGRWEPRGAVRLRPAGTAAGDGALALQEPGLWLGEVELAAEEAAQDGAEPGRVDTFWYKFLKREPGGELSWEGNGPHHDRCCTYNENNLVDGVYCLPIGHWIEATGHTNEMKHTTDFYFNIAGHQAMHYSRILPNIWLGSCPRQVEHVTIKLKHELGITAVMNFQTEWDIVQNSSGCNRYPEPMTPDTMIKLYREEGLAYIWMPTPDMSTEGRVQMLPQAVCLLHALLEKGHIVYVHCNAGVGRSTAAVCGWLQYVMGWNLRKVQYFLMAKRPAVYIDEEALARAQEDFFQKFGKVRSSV


Key:
[1] = biological target: T1, H. sapiens laforin residues 1-328, …; assay: AUC; settings: remark: other sources report otherwise
SEC-SAXS = biological target: the molecule itself; assay: SEC-SAXS

stoichiometry N [1]	Binder	stoichiometry N (SEC-SAXS)
2	H. sapiens laforin residues 1-328, wild-type, O95278 1-328 (enzyme) MRFRFGVVVPPAVAGARPELLVVGSRPELGRWEPRGAVRLRPAGTAAGDGALALQEPGLWLGEVELAAEEAAQDGAEPGRVDTFWYKFLKREPGGELSWEGNGPHHDRCCTYNENNLVDGVYCLPIGHWIEATGHTNEMKHTTDFYFNIAGHQAMHYSRILPNIWLGSCPRQVEHVTIKLKHELGITAVMNFQTEWDIVQNSSGCNRYPEPMTPDTMIKLYREEGLAYIWMPTPDMSTEGRVQMLPQAVCLLHALLEKGHIVYVHCNAGVGRSTAAVCGWLQYVMGWNLRKVQYFLMAKRPAVYIDEEALARAQEDFFQKFGKVRSSV	–
–	H. sapiens laforin residues 1-328, C266S (enzyme, human, UniProt O95278 1-328, looked up) MRFRFGVVVPPAVAGARPELLVVGSRPELGRWEPRGAVRLRPAGTAAGDGALALQEPGLWLGEVELAAEEAAQDGAEPGRVDTFWYKFLKREPGGELSWEGNGPHHDRCCTYNENNLVDGVYCLPIGHWIEATGHTNEMKHTTDFYFNIAGHQAMHYSRILPNIWLGSCPRQVEHVTIKLKHELGITAVMNFQTEWDIVQNSSGCNRYPEPMTPDTMIKLYREEGLAYIWMPTPDMSTEGRVQMLPQAVCLLHALLEKGHIVYVHSNAGVGRSTAAVCGWLQYVMGWNLRKVQYFLMAKRPAVYIDEEALARAQEDFFQKFGKVRSSV	2
